Results published in paper PMC7903523 (Nature, 2020).

Biological target: the molecule itself
Assay: cryo-EM structure

B1: human sterol O-acyltransferase 1 (ACAT1), full length, C-terminal Flag-tag (enzyme, UniProt P35610 1-550, looked up)
chain: MVGEEKMSLRNRLSKSRENPEEDEDQRNPAKESLETPSNGRIDIKQLIAKKIKLTAEAEELKPFFMKEVGSHFDDFVTNLIEKSASLDNGGCALTTFSVLEGEKNNHRAKDLRAPPEQGKIFIARRSLLDELLEVDHIRTIYHMFIALLILFILSTLVVDYIDEGRLVLEFSLLSYAFGKFPTVVWTWWIMFLSTFSVPYFLFQHWATGYSKSSHPLIRSLFHGFLFMIFQIGVLGFGPTYVVLAYTLPPASRFIIIFEQIRFVMKAHSFVRENVPRVLNSAKEKSSTVPIPTVNQYLYFLFAPTLIYRDSYPRNPTVRWGYVAMKFAQVFGCFFYVYYIFERLCAPLFRNIKQEPFSARVLVLCVFNSILPGVLILFLTFFAFLHCWLNAFAEMLRFGDRMFYKDWWNSTSYSNYYRTWNVVVHDWLYYYAYKDFLWFFSKRFKSAAMLAVFAVSAVVHEYALAVCLSFFYPVLFVLFMFFGMAFNFIVNDSRKKPIWNVLMWTSLFLGNGVLLCFYSQEWYARQHCPLKNPTFLDYVRPRSWTCRYVF
**Q.** How did the “stoichiometry N” value turn out when B1 was run?
**A.** Its value is 4.
